The values that follow come from patent publication US20130005646A1 (Novo Nordisk, published 2013).

Starred links: 1 amine or outer side, 2 acyl side, 3 side chain; linkers in the order of their positions; H or OH if unused. Positions of bridges follow the written chain, without caps; N, C: chain ends. *: point of attachment. C20 diacid = O=C(O)CCCCCCCCCCCCCCCCCCC(=O)*; γGlu = O=C(O)[C@H](CCC(=O)[*:2])N[*:1]

Assay [1] addresses T1, human amylin 3(a) receptor (human calcitonin receptor + RAMP-3) (human, UniProt P30988 25-474; O60896 24-148).
T1 sequence (looked up) 1: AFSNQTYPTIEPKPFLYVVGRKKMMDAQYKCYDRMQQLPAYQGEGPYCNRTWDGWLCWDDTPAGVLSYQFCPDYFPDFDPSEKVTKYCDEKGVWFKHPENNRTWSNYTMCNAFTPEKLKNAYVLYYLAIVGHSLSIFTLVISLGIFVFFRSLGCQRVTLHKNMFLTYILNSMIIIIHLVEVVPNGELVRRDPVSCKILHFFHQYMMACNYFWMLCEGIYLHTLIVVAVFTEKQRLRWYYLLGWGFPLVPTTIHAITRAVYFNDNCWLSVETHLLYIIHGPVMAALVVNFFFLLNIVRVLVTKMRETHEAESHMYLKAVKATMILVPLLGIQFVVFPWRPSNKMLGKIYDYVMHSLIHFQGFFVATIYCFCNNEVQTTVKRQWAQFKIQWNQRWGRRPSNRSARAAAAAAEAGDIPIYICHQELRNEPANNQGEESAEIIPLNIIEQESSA
T1 sequence (looked up) 2: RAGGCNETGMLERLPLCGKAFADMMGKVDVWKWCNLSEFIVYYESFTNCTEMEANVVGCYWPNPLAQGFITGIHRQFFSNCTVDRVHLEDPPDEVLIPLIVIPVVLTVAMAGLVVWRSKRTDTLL
The experiment in a line: cell-based or functional assay.

Assay [2] concerns the target T2, human calcitonin (a) receptor (human, UniProt P30988 25-474).
T2 sequence (looked up): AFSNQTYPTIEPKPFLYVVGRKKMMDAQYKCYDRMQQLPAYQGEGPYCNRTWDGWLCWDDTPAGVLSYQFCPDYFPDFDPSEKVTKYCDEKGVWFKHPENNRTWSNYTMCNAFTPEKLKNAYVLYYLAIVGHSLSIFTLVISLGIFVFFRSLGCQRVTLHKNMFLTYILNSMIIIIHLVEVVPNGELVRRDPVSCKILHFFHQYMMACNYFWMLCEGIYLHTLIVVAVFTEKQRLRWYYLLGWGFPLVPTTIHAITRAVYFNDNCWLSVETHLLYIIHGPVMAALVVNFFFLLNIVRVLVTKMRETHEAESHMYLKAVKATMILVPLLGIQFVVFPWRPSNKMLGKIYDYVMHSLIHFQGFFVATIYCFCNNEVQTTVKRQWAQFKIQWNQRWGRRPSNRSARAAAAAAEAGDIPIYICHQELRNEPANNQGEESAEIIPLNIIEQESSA
The experiment in a line: cell-based or functional assay.

B1: N-alpha-[(S)-4-Carboxy-4-(19-carboxynonadecanoylamino)butyryl]-[Glu1,Glu14,His17,Arg18]-pramlintide (peptide)
peptide: {C20 diacid-γGlu}-ECNTATCATQRLAEFLHRSSNNFGPILPPTNVGSNTY-NH2
modifications: disulfide 2-7
SMILES: CC[C@H](C)[C@H](NC(=O)[C@@H]1CCCN1C(=O)CNC(=O)[C@H](Cc1ccccc1)NC(=O)[C@H](CC(N)=O)NC(=O)[C@H](CC(N)=O)NC(=O)[C@H](CO)NC(=O)[C@H](CO)NC(=O)[C@H](CCCNC(=N)N)NC(=O)[C@H](Cc1c[nH]cn1)NC(=O)[C@H](CC(C)C)NC(=O)[C@H](Cc1ccccc1)NC(=O)[C@H](CCC(=O)O)NC(=O)[C@H](C)NC(=O)[C@H](CC(C)C)NC(=O)[C@H](CCCNC(=N)N)NC(=O)[C@H](CCC(N)=O)NC(=O)[C@@H](NC(=O)[C@H](C)NC(=O)[C@@H]1CSSC[C@H](NC(=O)[C@H](CCC(=O)O)NC(=O)CC[C@H](NC(=O)CCCCCCCCCCCCCCCCCCC(=O)O)C(=O)O)C(=O)N[C@@H](CC(N)=O)C(=O)N[C@@H]([C@@H](C)O)C(=O)N[C@@H](C)C(=O)N[C@@H]([C@@H](C)O)C(=O)N1)[C@@H](C)O)C(=O)N[C@@H](CC(C)C)C(=O)N1CCC[C@H]1C(=O)N1CCC[C@H]1C(=O)N[C@H](C(=O)N[C@@H](CC(N)=O)C(=O)N[C@H](C(=O)NCC(=O)N[C@@H](CO)C(=O)N[C@@H](CC(N)=O)C(=O)N[C@H](C(=O)N[C@@H](Cc1ccc(O)cc1)C(N)=O)[C@@H](C)O)C(C)C)[C@@H](C)O
With B1, the “Amylin receptor human EC50” value in assay [1] was determined as 174 pM. In addition, in assay [2], the “CTa receptor human EC50” value was found to be 753 pM.

B2: N-alpha-[(S)-4-Carboxy-4-(19-carboxynonadecanoylamino)butyryl]-His-His-[His1,Glu14,His17,His29,His35]-pramlintide (peptide)
peptide: {C20 diacid-γGlu}-HHHCNTATCATQRLAEFLHHSSNNFGPILPHTNVGSHTY-NH2
modifications: disulfide 4-9
SMILES: CC[C@H](C)[C@H](NC(=O)[C@@H]1CCCN1C(=O)CNC(=O)[C@H](Cc1ccccc1)NC(=O)[C@H](CC(N)=O)NC(=O)[C@H](CC(N)=O)NC(=O)[C@H](CO)NC(=O)[C@H](CO)NC(=O)[C@H](Cc1c[nH]cn1)NC(=O)[C@H](Cc1c[nH]cn1)NC(=O)[C@H](CC(C)C)NC(=O)[C@H](Cc1ccccc1)NC(=O)[C@H](CCC(=O)O)NC(=O)[C@H](C)NC(=O)[C@H](CC(C)C)NC(=O)[C@H](CCCNC(=N)N)NC(=O)[C@H](CCC(N)=O)NC(=O)[C@@H](NC(=O)[C@H](C)NC(=O)[C@@H]1CSSC[C@H](NC(=O)[C@H](Cc2c[nH]cn2)NC(=O)[C@H](Cc2c[nH]cn2)NC(=O)[C@H](Cc2c[nH]cn2)NC(=O)CC[C@H](NC(=O)CCCCCCCCCCCCCCCCCCC(=O)O)C(=O)O)C(=O)N[C@@H](CC(N)=O)C(=O)N[C@@H]([C@@H](C)O)C(=O)N[C@@H](C)C(=O)N[C@@H]([C@@H](C)O)C(=O)N1)[C@@H](C)O)C(=O)N[C@@H](CC(C)C)C(=O)N1CCC[C@H]1C(=O)N[C@@H](Cc1c[nH]cn1)C(=O)N[C@H](C(=O)N[C@@H](CC(N)=O)C(=O)N[C@H](C(=O)NCC(=O)N[C@@H](CO)C(=O)N[C@@H](Cc1c[nH]cn1)C(=O)N[C@H](C(=O)N[C@@H](Cc1ccc(O)cc1)C(N)=O)[C@@H](C)O)C(C)C)[C@@H](C)O
As for B2, the “Amylin receptor human EC50” value in assay [1] was determined as 272 pM. The “CTa receptor human EC50” value in assay [2] stood at 198 pM.

B3: N-alpha-[(S)-4-Carboxy-4-(19-carboxynonadecanoylamino)butyryl]-[Glu1,Glu14,His17]-pramlintide (peptide)
peptide: {C20 diacid-γGlu}-ECNTATCATQRLAEFLHHSSNNFGPILPPTNVGSNTY-NH2
modifications: disulfide 2-7
SMILES: CC[C@H](C)[C@H](NC(=O)[C@@H]1CCCN1C(=O)CNC(=O)[C@H](Cc1ccccc1)NC(=O)[C@H](CC(N)=O)NC(=O)[C@H](CC(N)=O)NC(=O)[C@H](CO)NC(=O)[C@H](CO)NC(=O)[C@H](Cc1c[nH]cn1)NC(=O)[C@H](Cc1c[nH]cn1)NC(=O)[C@H](CC(C)C)NC(=O)[C@H](Cc1ccccc1)NC(=O)[C@H](CCC(=O)O)NC(=O)[C@H](C)NC(=O)[C@H](CC(C)C)NC(=O)[C@H](CCCNC(=N)N)NC(=O)[C@H](CCC(N)=O)NC(=O)[C@@H](NC(=O)[C@H](C)NC(=O)[C@@H]1CSSC[C@H](NC(=O)[C@H](CCC(=O)O)NC(=O)CC[C@H](NC(=O)CCCCCCCCCCCCCCCCCCC(=O)O)C(=O)O)C(=O)N[C@@H](CC(N)=O)C(=O)N[C@@H]([C@@H](C)O)C(=O)N[C@@H](C)C(=O)N[C@@H]([C@@H](C)O)C(=O)N1)[C@@H](C)O)C(=O)N[C@@H](CC(C)C)C(=O)N1CCC[C@H]1C(=O)N1CCC[C@H]1C(=O)N[C@H](C(=O)N[C@@H](CC(N)=O)C(=O)N[C@H](C(=O)NCC(=O)N[C@@H](CO)C(=O)N[C@@H](CC(N)=O)C(=O)N[C@H](C(=O)N[C@@H](Cc1ccc(O)cc1)C(N)=O)[C@@H](C)O)C(C)C)[C@@H](C)O
For the molecule B3, the “Amylin receptor human EC50” value in assay [1] was found to be 377 pM. The “CTa receptor human EC50” value in assay [2] was 657 pM.

B4: N-alpha-[(S)-4-Carboxy-4-(19-carboxynonadecanoylamino)butyryl]-[des1,Glu14,His17]-pramlintide (peptide)
peptide: {C20 diacid-γGlu}-CNTATCATQRLAEFLHHSSNNFGPILPPTNVGSNTY-NH2
modifications: disulfide 1-6
SMILES: CC[C@H](C)[C@H](NC(=O)[C@@H]1CCCN1C(=O)CNC(=O)[C@H](Cc1ccccc1)NC(=O)[C@H](CC(N)=O)NC(=O)[C@H](CC(N)=O)NC(=O)[C@H](CO)NC(=O)[C@H](CO)NC(=O)[C@H](Cc1c[nH]cn1)NC(=O)[C@H](Cc1c[nH]cn1)NC(=O)[C@H](CC(C)C)NC(=O)[C@H](Cc1ccccc1)NC(=O)[C@H](CCC(=O)O)NC(=O)[C@H](C)NC(=O)[C@H](CC(C)C)NC(=O)[C@H](CCCNC(=N)N)NC(=O)[C@H](CCC(N)=O)NC(=O)[C@@H](NC(=O)[C@H](C)NC(=O)[C@@H]1CSSC[C@H](NC(=O)CC[C@H](NC(=O)CCCCCCCCCCCCCCCCCCC(=O)O)C(=O)O)C(=O)N[C@@H](CC(N)=O)C(=O)N[C@@H]([C@@H](C)O)C(=O)N[C@@H](C)C(=O)N[C@@H]([C@@H](C)O)C(=O)N1)[C@@H](C)O)C(=O)N[C@@H](CC(C)C)C(=O)N1CCC[C@H]1C(=O)N1CCC[C@H]1C(=O)N[C@H](C(=O)N[C@@H](CC(N)=O)C(=O)N[C@H](C(=O)NCC(=O)N[C@@H](CO)C(=O)N[C@@H](CC(N)=O)C(=O)N[C@H](C(=O)N[C@@H](Cc1ccc(O)cc1)C(N)=O)[C@@H](C)O)C(C)C)[C@@H](C)O
With B4, in assay [1], the “Amylin receptor human EC50” value amounted to 179 pM. In assay [2], the “CTa receptor human EC50” value came to 259 pM.

B5: N-alpha-[(S)-4-Carboxy-4-(19-carboxynonadecanoylamino)butyryl]-His-His-[His1,His3,Glu14,His17]-pramlintide (peptide)
peptide: {C20 diacid-γGlu}-HHHCHTATCATQRLAEFLHHSSNNFGPILPPTNVGSNTY-NH2
modifications: disulfide 4-9
SMILES: CC[C@H](C)[C@H](NC(=O)[C@@H]1CCCN1C(=O)CNC(=O)[C@H](Cc1ccccc1)NC(=O)[C@H](CC(N)=O)NC(=O)[C@H](CC(N)=O)NC(=O)[C@H](CO)NC(=O)[C@H](CO)NC(=O)[C@H](Cc1c[nH]cn1)NC(=O)[C@H](Cc1c[nH]cn1)NC(=O)[C@H](CC(C)C)NC(=O)[C@H](Cc1ccccc1)NC(=O)[C@H](CCC(=O)O)NC(=O)[C@H](C)NC(=O)[C@H](CC(C)C)NC(=O)[C@H](CCCNC(=N)N)NC(=O)[C@H](CCC(N)=O)NC(=O)[C@@H](NC(=O)[C@H](C)NC(=O)[C@@H]1CSSC[C@H](NC(=O)[C@H](Cc2c[nH]cn2)NC(=O)[C@H](Cc2c[nH]cn2)NC(=O)[C@H](Cc2c[nH]cn2)NC(=O)CC[C@H](NC(=O)CCCCCCCCCCCCCCCCCCC(=O)O)C(=O)O)C(=O)N[C@@H](Cc2c[nH]cn2)C(=O)N[C@@H]([C@@H](C)O)C(=O)N[C@@H](C)C(=O)N[C@@H]([C@@H](C)O)C(=O)N1)[C@@H](C)O)C(=O)N[C@@H](CC(C)C)C(=O)N1CCC[C@H]1C(=O)N1CCC[C@H]1C(=O)N[C@H](C(=O)N[C@@H](CC(N)=O)C(=O)N[C@H](C(=O)NCC(=O)N[C@@H](CO)C(=O)N[C@@H](CC(N)=O)C(=O)N[C@H](C(=O)N[C@@H](Cc1ccc(O)cc1)C(N)=O)[C@@H](C)O)C(C)C)[C@@H](C)O
B5: in assay [1], the “Amylin receptor human EC50” value turned out to be 286 pM. Further, in assay [2], the “CTa receptor human EC50” value is 802 pM.

B6: N-alpha-[(S)-4-Carboxy-4-(19-carboxynonadecanoylamino)butyryl]-His-His-[His1,His3,Glu14,His17,His29,His35]-pramlintide (peptide)
peptide: {C20 diacid-γGlu}-HHHCHTATCATQRLAEFLHHSSNNFGPILPHTNVGSHTY-NH2
modifications: disulfide 4-9
SMILES: CC[C@H](C)[C@H](NC(=O)[C@@H]1CCCN1C(=O)CNC(=O)[C@H](Cc1ccccc1)NC(=O)[C@H](CC(N)=O)NC(=O)[C@H](CC(N)=O)NC(=O)[C@H](CO)NC(=O)[C@H](CO)NC(=O)[C@H](Cc1c[nH]cn1)NC(=O)[C@H](Cc1c[nH]cn1)NC(=O)[C@H](CC(C)C)NC(=O)[C@H](Cc1ccccc1)NC(=O)[C@H](CCC(=O)O)NC(=O)[C@H](C)NC(=O)[C@H](CC(C)C)NC(=O)[C@H](CCCNC(=N)N)NC(=O)[C@H](CCC(N)=O)NC(=O)[C@@H](NC(=O)[C@H](C)NC(=O)[C@@H]1CSSC[C@H](NC(=O)[C@H](Cc2c[nH]cn2)NC(=O)[C@H](Cc2c[nH]cn2)NC(=O)[C@H](Cc2c[nH]cn2)NC(=O)CC[C@H](NC(=O)CCCCCCCCCCCCCCCCCCC(=O)O)C(=O)O)C(=O)N[C@@H](Cc2c[nH]cn2)C(=O)N[C@@H]([C@@H](C)O)C(=O)N[C@@H](C)C(=O)N[C@@H]([C@@H](C)O)C(=O)N1)[C@@H](C)O)C(=O)N[C@@H](CC(C)C)C(=O)N1CCC[C@H]1C(=O)N[C@@H](Cc1c[nH]cn1)C(=O)N[C@H](C(=O)N[C@@H](CC(N)=O)C(=O)N[C@H](C(=O)NCC(=O)N[C@@H](CO)C(=O)N[C@@H](Cc1c[nH]cn1)C(=O)N[C@H](C(=O)N[C@@H](Cc1ccc(O)cc1)C(N)=O)[C@@H](C)O)C(C)C)[C@@H](C)O
For the molecule B6, the “Amylin receptor human EC50” value in assay [1] came to 1030 pM. Besides, in assay [2], the “CTa receptor human EC50” value is 484 pM.
